The DeepSol protein solubility set

Experiment: soluble on expression in E. coli; label from the status in PepcDB or PDB records

Sequence	soluble on expression in E. coli
EISLNGYGRFGLQYVEDRGVGLEDTIISSRLRINIVGTTETDQGVTFGAKLRMQWDDGDAFAGTAGNAAQFWTSYNGVTVSVGNVDTAFDSVALTYDSEMGYEASSFGDAQSSFFAYNSKYDASGALDNYNGIAVTYSISGVNLYLSYVDPDQTVDSSLVTEEFGIAADWSNDMISLAAAYTTDAGGIVDNDIAFVGAAYKFNGGGGPKLAKMEKARGGGGDAGTVGLNWYDNGLSTAGDQVTLYGNYAFGATTVRAYVSDIDRAGADTAYGIGADYQFAEGVKVSGSVQSGFANETVADVGVRFDF	soluble
EKAVLIGEKEADITFVTWGSQKGPILDVIEDLKEEGISANLLYLKMFSPFPTEFVKNVLSSANLVIDVESNYTAQAAQMIKLYTGIDIKNKILKYNGRHMTEDEILKSAKEILNKESLMVVLEDGS	not soluble
EKKYFEIHGVPSIIWGNPSSKLYIYIHGQCGNKEEAEAFANIAVPHECQVLSVDLPEHGERKREKNSFNPWHVVPELVSIMEYAKCHWNQISLYANSIGAWFSMLSFEKENLRECIFVSPILDMQQLISNMMLWANVSEEQLKHELIIPTSFGHTLSWEYLQYVKQHPITQWNVPTKILYGKHDELTEIGVVEKFVEKFNCNLTIIENGKHWFNTPQELNSLYEWLNTLVK	not soluble
EKQNEIQKKKARRHQLAMDYPEFISTFTLYLGAGMPARRAWFQIASVYRQQENTRYVYEEMVYTMREMQRGTPESECYEHFGMRCGLPVYRKFAVMLSQNLRKGTKGLAELLQREAAGAFEERKAAARKLGEETSTR	not soluble
EKQSIHRTQLEALDSVITDLETSAQKGISLTEPEIFASLLETCYSLRAIDHGVRVHHLIPPYLLRNNLGISSKLVRLYASCGYAEVAHEVFDRMSKRDSSPFAWNSLISGYAELGQYEDAMALYFQMAEDGVKPDRFTFPRVLKACGGIGSVQIGEAIHRDLVKEGFGYDVYVLNALVVMYAKCGDIVKARNVFDMIPHKDYVSWNSMLTGYLHHGLLHEALDIFRLMVQNGIEPDKVAISSVLARVLSFKHGRQLHGWVIRRGMEWELSVANALIVLYSKRGQLGQACFIFDQMLERDTVSWNAIISAHSKNSNGLKYFEQMHRANAKPDGITFVSVLSLCANTGMVEDGERLFSLMSKEYGIDPKMEHYACMVNLYGRAGMMEEAYSMIVQEMGLEAGPTVWGALLYACYLHGNTDIGEVAAQRLFELEPDNEHNFELLIRIYSKAKRAEDVERVRQMMVDRGLET	soluble
EKVDIDLRDQVSLQHGAQIFTNYCLSCHSASGMRFNRLKDIGLTDEEIKKNLMFTTDNVGDVMHSAMNPKDAAKWFGAAPPDLTLIARSKGADYLYAYMRGFYKDPTRPSGWNNTVFDKVGMPHPLWEQQGVQAVELDAKGQPVMVKDEHGEMKPKLYWESTGLHSRRLPNGKVIQKEYDAYVRDLVNYLVYMGEPAQLQRKR	not soluble
ELHPRTGRLVSLSACGRTARRQQPGQEFNHGLVLSREPLRDGRVFTVRIDRKVNSWSGSIEIGVTALDPSVLDFPSSATGLKGGSWVVSGCSVLRDGRSVLEEYGQDLDQLGEGDRVGVERTVAGELRLWVNGRDCGVAATGLPPRVWAVVDLYGKCTQITVL	soluble
ELPDFFQGKHFFLYGEFPGDERRKLIRYVTAFNGELEDYMSDRVQFVITAQEWDPSFEEALMDNPSLAFVRPRWIYSCNEKQKLLPHQLYGVVPQA	soluble
ELRAKERKIIRDKEDGLNPQLADRMTLNELYDRFIEQKYDLKPSTKVNYLYMYNHFVRPTFGKRLIGKIKYSDVKKFYYRIILDEEMKANTLDSIHTQLHPAFQMAVRDGLLRQNPTDGLMAEIKKSHIWEDNPRHALTIPQQKAFMDYLKAHREYQGWVPIITVLLGTGMRIGECIGLRWDDLDFEKRIVSVNHTFIYRPDENRKSVKHISTPKTISGRRTIPMIDEVFNAFLDEYEIQKCIGFSSEEIDGYSNFVFVTATGTVYLPNAVNRAIERARVAYNKDEIEIAEKEDREPLIIPHF	not soluble
EMIHHAKNQLIMCSPYFIPDESMLEAVTSACYRGVRVELLVSEQADQFVVDHAQSSYYQTLLEAGVHIYRYHAPAVLHSKFLIADPHGVAVSVMGSSNMDMRSFGLNYEVSLMTLQGQLTHLLYELAETYKENSTELTLEEWNQRGIVRRYVDNIMKLTSALQ	not soluble
ENRDCYSLYRMNPADGKIQQLEVSEDLVNSFSLAQNAPVMVYYGQSASNSDRLYTMNTKKMKSSLLEDLSKDILKDVELGECKAWSFTNSRGDTIYGRYYLPPHFDANRKYPMIVNYYGGCSPVSRNFESRYPHHAYAALGYVVYVIEPSGATGFGQEFSARHVNTAGEGVAQDIIEGTKQFCKEHAFVNDKKIGCIGASYGGFMTQYLQTQTDIFAAAISHAGISDHTSYWGEGYWGYSYSEVSMANSYPWSNPDLFVKQSPLFNADKIHTPLLFLHGDADVNVPVGESIQMFTALKLLGRETAFVAVTGQDHHIVDYGKRIQWQNTIFAWFAKWLQ	not soluble
ENYLSIEKRLYENLAQESSHSASRLQFLLEHAQANTQGLSDFIGLLADKDDINNPEKLKTVLTNRIQRNPDFFGSAIAFKPNTFPNKKLFSPYVYRSGSGFNYLDIGADGYDYTDGNWDWWSKAINQVGGYWSKAYFDEGAGNVLMITYAVPFGVQPDYFGVTTVDLALDRLPEQLGIAPSRLVVLDDQGRLIFHSDKEKVLAASSSGWLDKQNIKNIAFATLLNDGQAGQASFVDDKGTVYLASVAEVAKLKWRVVVMVPKHELFASLLDDIA	soluble
EQKVYEQKTRQQVMLSAYQQKEKDIESILDMQKQNSKQRHDINNVLILISELIQDEKYSKALEVLDKYRTGYNNINVTEIVSNNIVLNYLLNRKINQCREAGIDMACYVLWNIAGVDDMDLYILLENLCDNAIEAAGQCEKPSIKLQIAEDNASMYIDIGNTTSGNVLNNNPHMNTTKKDKNMHGFGIMNIRDIIDKYNGTINYEQQGDNYLMCRCTLEKVCQ	not soluble
EQMQSEFFYTDRKKIKWSLPSQPKVDIVELELLVARFIGEEKATKCFEKFHSMNQTKDNKKFNEAILFHAENTLARVLGSASAKLVTSLAISSRGMAFDQVAKLVEDNSTQQLEFSRTVLQSAIENVSEGISVIDSELKLVAWNKQYLDIFSYPEAFIYIGCPISQLIHFNLSQQGYFAKDIDLRVK	not soluble
ERYGALAVPVGPGNLDIQTTFLVDLQSTVVCCTASMGLLLAEEVQRRNLRDKIAVRKVILGAERSSEAILAKIRECLGAESVHDITGLTEVYGPGTGLSCGVPGADGSI	not soluble
ESIYIQSPYFIPDQAFLDSIKIAALGGVDVNIMVPNKRDHPFVYWATLKNVASLLEAGVNVYHYDNGFLHSKTLVIDDEVASVGTANMDNRSFTLNFEVNAFIYDEGVARSLKQAFINDMKLSNKLTSEEYAKR	not soluble
ETRVRRTKTIVEITGLDARSGSLRINELYRWEPVHDNFKRAGDSYVLNEIMRARGWSPDKLFIEFKNREQILAYMTAKQIRDYVSVSLIVHMYATNPQLVMEAVGNDTLRDMVAHHS	not soluble
ETTSCEFSVSPSGLAFCDKVVGYGPEAVKGQLIKAHYVGKLENGKVFDSSYNRGKPLTFRIGVGEVIKGWDQGILGSDGIPPMLTGGKRTLRIPPELAYGDRGAGCKGGSCLIPPASVLLFDIEYIGKA	soluble
EVEGDKTVPNNVANAPFAGTEPLAKKLGLTEVNSLNTAVAATSSFVQFNAIASHSTFASPSGTLADVNHHAEMQKENADFLMDNALSDVSDTTVLK	not soluble
EVKEEDAFYSKKCKLFYKKDNEFKEKGIGTLHLKPTANQKTQLLVRADTNLGNILLNVLIPPNMPCTRTGKNNVLIVCVPNPPIDEKNATMPVTMLIRVKTSEDADELHKILLEKKDA	soluble
FEDVVGQEHITKTLQNALLQKKFSHAYLFSGPRGTGKTSAAKIFAKAVNCEHAPVDEPCNECAACKGITNGSISDVIEIDAASNNGVDEIRDIRDKVKFAPSAVTYKVYIIDEVHMLSIGAFNALLKTLEEPPEHCIFILATTEPHKIPLTIISRCQRFDFKRITSQAIVGRMNKIVDAEQLQVEEGSLEIIASAADGGMRDALSLLDQAISFSGDILKVEDALLITGAVSQLYIGKLAKSLHDKNVSDALETLNELLQQGKDPAKLIEDMIFYFRDMLLYKTAPGLEGVLEKVKVDETFRELSEQIPAQALYEMIDILNKSHQEMKWTNHPRIFFEVAVVKICQTSHQSAADLPEVDMLMKKIQQLEQEVERLKTTGIKAAAESPKKEAPRVPKGGKSNYKAPVGRIHEILKEATRPDLDLLRNSWGKLLAHLKQQNKVSHAALLNDSEPVAAGSAAFVLKFKYEIHCKMVAEDNNGVRTNLEQILESMLGKRMDLIGVPEAQWGKIREEFLEDHQQANEGSNEPAEEDPLIAEAKKLVGADLIEIKD	not soluble
FFALDYKRTEYVQYEDDEYYYYVKAVPKLNVASEDVRIKHINAKKTKKTSDIRDMKKTSSHRAESGYQAASAEEDDDILFYDNDDK	not soluble
FGTFKSAITDYHGYEYKNHGYGLALTDTDLLGGSSGSLVFNQDKKISSIYSAATESDSVGYAQLLPVPKDV	not soluble
FGYIVELNWKLSKILNCQPEYVYPKLDELLGCLLTKKPLHEYGMKDEEVRGFAESVLKTQQRLLANNYVELTVDEIEGIYRRLY	not soluble
FHLGKCPNPPVQENFDVNKYPGRWYEIEKIPTTFENGRCIQANYSLMENGKIKVLNQELRADGTVNQIEGEATPVNLTEPAKLEVKFSWFMPSAPYHILATDYENYALVYSCTSISQSFHVDFAWILARNVALPPETVDSLKNILTSNNIDVKKMTVTDQVNCPKLSAHHHHHH	soluble
FLDKPTLLSPEELKAASRGNGEYALYYEGRNGWWQYDERTSRELEDAFSKGKRTSEMLIAGFLYVADLENMGQYRRNEHGRRRKIKRDIIDIPKKGV	soluble
FLVPPTVEQKTRPFTLPNLPLSSLSNSRAPLPISSMGISPDNVQSVQFQNGRCTLDGRLVGTTPVSLSHVAKIRGTSNGTVINLTELDGTPFHPFEGPAPIGFPDLGGCDWHINMTQFGHSSQTQYDVDTTPDTFVPHLGSIQANGIGSGNYVGVLSWISPPSHPSGSQVDLWKIPNYGSSITEATHLAPSVYPPGFGEVLVFFMSKMPGPGAYNLPCLLPQEYISHLASEQAPTVGEAALLHYVDPDTGRNLGEFKAYPDGFLTCVPNGASSGPQQLPINGVFVFVSWVSRFYQLKPVGTASSARGRLGLRR	soluble
FMFKHIIARTPARSLVDGLTSSHLGKPDYAKALEQHNAYIRALQTCDVDITLLPPDERFPDSVFVEDPVLCTSRCAIITRPGAESRRGETEIIEETVQRFYPGKVERIEAPGTVEAGDIMMVGDHFYIGESARTNAEGARQMIAILEKHGLSGSVVRLEKVLHLKTGLAYLEHNNLLAAGEFVSKPEFQDFNIIEIPEEESYAANCIWVNERVIMPAGYPRTREKIARLGYRVIEVDTSEYRKIDGGVSSMSLRF	soluble
FNKIKDSVKQKIDSMGDKGTYGVSASHPLAVEEGMKVLKNGGSAVDAAIVVSYVLGVVELHASGIGGGGGMLIISKDKETFIDYRETTPYFTGNQKPHIGVPGFVAGMEYIHDNYGSLPMGELLQPAINYAEKGFKVDDSLTMRLDLAKPRIYSDKLSIFYPNGEPIETGETLIQTDLARTLKKIQKEGAKGFYEGGVARAISKTAKISLEDIKGYKVEVRKPVKGNYMGYDVYTAPPPFSGVTLLQMLKLAEKKEVYKDVDHTATYMSKMEEISRIAYQDRKKNLGDPNYVNMDPNKMVSDKYISTMKNENGDALSEAEHES	soluble
